Source: PMC3634583

Assays:
Western blot = details: glycan lost; control: wild-type pre-proBNP
[1] = Western blot of 293T lysate, 8 kDa BNP form; details: glycan lost; control: wild-type pre-proBNP

## proBNP1-108 (pro-B-type natriuretic peptide): T71A
Western blot
  other: proteolytic processing: increases
[1]
  other: proteolytic processing: increases
